± gives the half width of the 95% confidence interval.
Experiments:
[1] = folding stability dG unfold from trypsin proteolysis; higher = more stable
Procedure, shortened: (§1)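 Designed mini-proteins (under 80 residues, no cysteine) in a PA-tagged cDNA display construct were digested with trypsin and chymotrypsin. Each protease was used at 11 concentrations (threefold dilutions) plus a no-protease condition, followed by sequencing. K50 was inferred by Bayesian fitting of sequencing counts, and unfolding free energy was derived against a sequence-predicted unfolded-state K50 and a shared folded-state K50, per protease or combined. Only designs with AlphaFold2 dimer inter-PAE above 15 were kept.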

[2] = folding stability dG unfold (combined trypsin and chymotrypsin); higher = more stable
Procedure, shortened: as §1

[3] = folding stability dG unfold from chymotrypsin proteolysis; higher = more stable
Procedure, shortened: as §1

Row | Sequence | folding stability dG unfold [1] | folding stability dG unfold [2] | folding stability dG unfold [3]
1 | SAGGSAGGSAGGGMTPVTTTTTVTVSPDATPVNFTTPDGTTVTVTPVPSSDTATVTTTVSSAGGSAGGSAGG [r7_796_JUSTAS] | 1.24 ± 0.06 kcal/mol | 0.724 ± 0.06 kcal/mol | 0.104 ± 0.03 kcal/mol
2 | SAGGSAGGSAGGGMTVLSFTMPKEEVEKYFEEKGLDATEMTISPGPGDTYSVTVLDPGSSAGGSAGGSAGGS [r10_999_JUSTAS] | 0.33 ± 0.089 kcal/mol | 0.151 ± 0.12 kcal/mol | -0.0653 ± 0.17 kcal/mol
3 | SAGGSAGGSAGGGNLALPPRYRITVRIEKDGSTSTVEFDSEEELAALDDPGLTVTEVREESAGGSAGGSAGG [r7_793_JUSTAS] | -0.743 ± 0.35 kcal/mol | 0.745 ± 0.11 kcal/mol | 1.18 ± 0.036 kcal/mol
4 | SAGGSAGGSAGGGRMLLTETETIFSPSGGESVVTRLVTVFRPPPPVFLPDPEGRWSELVSAGGSAGGSAGGS [r10_330_JUSTAS] | 0.999 ± 0.14 kcal/mol | 0.856 ± 0.22 kcal/mol | 0.769 ± 0.3 kcal/mol
5 | SAGGSAGGSAGGGRVELELTFIREDGYAVKVRIEVDEDGNLRIEVEVVKLPPAASPEELSAGGSAGGSAGGS [r10_878_TrROS_Hall] | 3.23 ± 0.14 kcal/mol | 2.86 ± 0.088 kcal/mol | 2.31 ± 0.072 kcal/mol
6 | SAGGSAGGSAGGGSMLTVKVPETVPEYTSTDPATGKTYNVPPSVPVEVEGSPDSFSILLSAGGSAGGSAGGS [r10_46_JUSTAS] | 1.21 ± 0.046 kcal/mol | 1.01 ± 0.094 kcal/mol | 0.842 ± 0.095 kcal/mol
7 | SAGGSAGGSAGGGSMPVTERIPGSPSSVTTTTFPDGTVTTETTAGPPVTLSPAGGSTLVSAGGSAGGSAGGS [r10_664_JUSTAS] | 0.97 ± 0.073 kcal/mol | 1.08 ± 0.11 kcal/mol | 1.09 ± 0.058 kcal/mol
8 | SAGGSAGGSAGGGSMTLELPLPEWSEEEIEALAEELKKKGLKVKEIERDPESDVVRITVESAGGSAGGSAGG [r7_906_JUSTAS] | 1.79 ± 0.1 kcal/mol | 2.15 ± 0.11 kcal/mol | 2.28 ± 0.078 kcal/mol
9 | SAGGSAGGSAGGGSMTTTTLTFTVPPDVTPEEVRAALEAAGYGDVAVTREGNTWTVTVTSAGGSAGGSAGGS [r10_868_JUSTAS] | 1.56 ± 0.049 kcal/mol | 2.4 ± 0.1 kcal/mol | 2.6 ± 0.039 kcal/mol
10 | SAGGSAGGSAGGGSSGVSYGSVPIVIRDPSGNVVSTLTLRVYPDGTVVLEFPDGSLLLLSAGGSAGGSAGGS [r10_972_JUSTAS] | 3.38 ± 0.081 kcal/mol | 3.86 ± 0.087 kcal/mol | 4.11 ± 0.045 kcal/mol
11 | SAGGSAGGSAGGGSTTTTTETYPENGLIFTTTTTVFDDGSLSVTTTTSPLPLPPSPFIATSAGGSAGGSAGG [r7_103_JUSTAS] | 1.29 ± 0.043 kcal/mol | 1.05 ± 0.18 kcal/mol | 0.394 ± 0.18 kcal/mol
12 | SAGGSAGGSAGGGSVTIRVESPEEAVATAKELLEKLTGAKPEATPLNVVVEEPDGVATVESAGGSAGGSAGG [r7_387_JUSTAS] | 1.03 ± 0.058 kcal/mol | 0.378 ± 0.13 kcal/mol | -0.721 ± 0.18 kcal/mol
13 | SAGGSAGGSAGGGSVVTTETSVSPNGVVTTTTTTTFLDPDGNPLGTTTTTTAHAAPPTTSAGGSAGGSAGGS [r10_403_JUSTAS] | 2.58 ± 0.076 kcal/mol | 2.12 ± 0.024 kcal/mol | 1.8 ± 0.031 kcal/mol
14 | SAGGSAGGSAGGGTVTLEIELKVKPGEKIKDLATGEEFEVKEGETVRIRITLPLPPAPEESAGGSAGGSAGG [r7_234_TrROS_Hall] | 0.963 ± 0.068 kcal/mol | 1.2 ± 0.17 kcal/mol | 1.11 ± 0.078 kcal/mol
15 | SAGGSAGGSAGGGVGIAEISFDPETQTVTIKAYNPETEEITEITIPVTNPLPLDLSDITSAGGSAGGSAGGS [r10_331_TrMRF] | 0.477 ± 0.085 kcal/mol | 0.725 ± 0.2 kcal/mol | 0.858 ± 0.14 kcal/mol
16 | SAGGSAGGSAGGGVKYRVLLPKDVNPEKAAELLKPYGVKVVSIEEVEEGFYLIEVEKPESAGGSAGGSAGGS [r10_591_TrMRF] | 1.18 ± 0.032 kcal/mol | 1.49 ± 0.13 kcal/mol | 1.59 ± 0.13 kcal/mol
17 | SAGGSAGGSAGGGVTLPTGDIVVPVEYTTTVPVLTYNPTLGVSYFFTLTVTTSSTVYVGLSAGGSAGGSAGG [r7_374_JUSTAS] | 2.71 ± 0.057 kcal/mol | 3.37 ± 0.082 kcal/mol | 3.868 ± 0.026 kcal/mol
18 | SAGGSAGGSAGGGWAEIEIKITIFVFDPGNMTLFMVTLEPRIEVPPVKRDPDNGKWKPDSAGGSAGGSAGGS [r10_815_TrROS] | 2.86 ± 0.23 kcal/mol | 3.81 ± 0.42 kcal/mol | 3.92 ± 0.21 kcal/mol
19 | SAGGSAGGSAGGIEKFLEKHPELKIKKEIKIKIPYKTKDGKEFEVEYKIFYLTSEDEEDSAGGSAGGSAGGS [r10_0_TrMRF] | 1.39 ± 0.05 kcal/mol | 2.36 ± 0.07 kcal/mol | 2.74 ± 0.057 kcal/mol
20 | SAGGSAGGSAGGIGDDGKVRVALLDKNGKVLGPVYVTKVEEGKIEVEAEPDYTLVLNLESAGGSAGGSAGGS [r10_1257_TrMRF] | -0.0768 ± 0.11 kcal/mol | 0.329 ± 0.15 kcal/mol | 0.487 ± 0.12 kcal/mol
21 | SAGGSAGGSAGGIIIPPGAKIVSIEKEGDFVKIKVYIPGSKKIETFKFPKGVPIIFEPEASAGGSAGGSAGG [r11_774_TrMRF] | 3.51 ± 0.28 kcal/mol | 3.41 ± 0.15 kcal/mol | 3.24 ± 0.075 kcal/mol

From the supplement of paper PMC12764529
